Reference: patent publication US6797467B1, “Compositions and methods for determining interactions of mitochondrial components, and for identifying agents that alter such interactions” (MitoKor, Inc., priority 1999, dated 2004)

Assays:
CypD rotamase activity = target: T1, CypD rotamase activity (Homo sapiens, UniProt P30405); experiment: Rotamase (peptidylprolyl cis-trans isomerase) solvent jump assay; type: biochemical; conditions: relative to reactions without added enzyme; FIG. 12, 13
T1 construct: made in house; host or cells: E. coli (pMK12-GST-huCypD)
Experimental: Cyclophilin binding to ANT present in the SMP was determined using soluble recombinant GST-cyclophilin D (see Example 10, above). Rotamase (peptidylprolyl cis-trans isomerase) activity of the GST-CypD preparation was determined according to the “solvent jump” method of Kofron et al. (1991 Biochemistry 30: 6127-6134). Briefly, Ala-Ala-cis/trans-Pro-Phe-pNa was used as the rotamase substrate, coupled with α-chymotrypsin cleavage of all trans-Pro containing peptide to yield p-nitroanilide, detected by absorbance at 390 nm.

[1] = target: T2, ANT present in the SMP (recombinant human ANT3) (Homo sapiens, UniProt P30405); experiment: GST-CypD binding to submitochondrial particles (SMP) from T. ni cells expressing His-tagged huANT3; conditions: 2.6 μM GST-CypD, 1 mg SMP; 0 hr, 3 hr, 6 hr; FIG. 11
T2 construct: made in house; host or cells: His-huANT3: submitochondrial particles of baculovirus-infected Trichoplusia ni cells; GST-huCypD: E. coli
Experimental: SMP preparation was according to a modification of Halestrap et al. (1998 Biochim. Biophys. Acta 1366:79-94), and all steps were performed at 4° C. Starting material was one liter of cell culture, corresponding to 1×10^9 T. ni cells. Cells were pelleted by centrifugation and stored frozen at −20° C. For isolation of mitochondria, the cell pellet was thawed and resuspended in 15 ml of mitochondrial isolation buffer (MIB, all reagents from Sigma, St. Louis, Mo., unless otherwise noted): 0.22 M mannitol, 70 mM sucrose, 10 mM Hepes, 0.2 mM EDTA, 0.2 mM 2-mercaptoethanol (2-ME), pH 7.2 plus a standard protease inhibitor cocktail (Roche Molecular Biochemicals, Indianapolis, Ind.). The suspension was subjected to two freeze-thaw cycles by shell-freezing the container in a dry ice/ETOH bath and then thawing the suspension at room temperature, and was then diluted with 20 ml of MIB. The suspension was next homogenized with 10 strokes in a Potter-Elvehjem homogenizer (rheostat setting 28). The resulting homogenate was further diluted with MIB to a volume of approximately 200 ml and centrifuged at 600×g at 4° C. for 10 min. […] Protein concentration was measured using the Pierce BCA (Pierce Chemical Co., Rockford, Ill.) according to the manufacturer's instructions. […]

[2] = target: T3, ANT/BR PLS (human ANT3 and bacteriorhodopsin) (Homo sapiens, UniProt P30405); experiment: GST-CypD binding to proteoliposomes reconstituted with huANT3 and bacteriorhodopsin (ANT/BR PLS); conditions: FIG. 14
T3 construct: GST-huCypD: E. coli; Bacteriorhodopsin: purchased
Experimental: Preformed liposomes were prepared by a freeze/thaw/sonication procedure. Briefly, egg-yolk lecithin (240 mg) was suspended in 3 ml of reconstitution buffer (50 mM NaCl, 10 mM HEPES, pH 7.4). The suspension was pulsed with argon stream to remove oxygen, partially frozen by contacting the vessel with a dry ice/ethanol bath, and sonicated as described above for SMP except the sonication period was for 1 min. The freeze/sonication step was repeated at least 3-4 times until clarification of lipid suspension was achieved.
Small EconoColumns™ (BioRad, Hercules, Calif.) were filled with 1.7 gm of SM-2 BioBeads™ (BioRad), washed with methanol followed by water, and equilibrated with the reconstitution buffer. […] Control (protein-free) liposomes were prepared in parallel by adding 0.5 ml of the elution buffer (50 mM NaCl, 1 mM EDTA, 10 mM Hepes, 1.3% Triton X-100™) to 200 μl of the liposome suspension. Each mixture was vortexed, applied to the BioBeads™ SM-2 column and passed through the column 5-6 times. Formation of proteoliposomes was visualized by apparent turbidity of the solution. Non-entrapped MUP or ATP was removed either during pelleting of the proteoliposomes by centrifugation, or by filtration of the proteoliposome suspension on a column of Sephadex™ G-50 (Pharmacia, Piscataway, N.J.).
Bacteriorhodopsin (BR) was co-reconstituted into the ANT liposomes as follows. […]

[3] = target: T4, His-tagged huANT3 : CypD-GST interaction (Homo sapiens, UniProt P30405); experiment: Nickel bead immunoassay of huANT3:huCypD interaction (Western, anti-GST); type: binding
T4 construct: made in house; host or cells: His-huANT3: Trichoplusia ni cells infected with baculovirus (pMK4B-huANT3); GST-huCypD: E. coli (pMK12-GST-huCypD)
T4 sequence (P30405 30-207): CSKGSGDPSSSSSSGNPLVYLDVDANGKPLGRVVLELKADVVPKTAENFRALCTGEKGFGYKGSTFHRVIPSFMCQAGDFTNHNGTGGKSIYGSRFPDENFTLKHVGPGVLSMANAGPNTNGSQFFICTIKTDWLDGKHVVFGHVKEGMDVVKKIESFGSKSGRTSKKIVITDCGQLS
Experimental: Each portion was suspended in 1 ml of MSB with protease inhibitors (leupeptin, final concentration 10 ug/ml; pepstatin, final concentration 10 ug/ml; aprotinin, final concentration, 2 ug/ml; phenylmethylsulfonyl fluoride {PMSF}, final concentration, 100 μM; all from Sigma Chemical Co., St Louis, Mo.). The resuspended cell suspensions were frozen and thawed twice, then homogenized using a rotating teflon-coated probe and a close-fitting glass container (10 passes). The cellular homogenate was centrifuged (3,700 rpm, approximately 1,500×g) at 4° C. for 5 minutes; this supernatant from the first spin was saved. The pellet was washed with about 500 μl of MSB with protease inhibitors, centrifuged (3,800 rpm, approximately 1,600×g) at 4° C. for 5 minutes, and supernatant from this spin was combined with the supernatant from the first spin. The combined supernatant was centrifuged (14,000 rpm, approximately 20,800×g) at 4° C. for 15 minutes, and the pellet was resuspended in 300 μl of a 1:1 solution of (a) 20 mM MOPS and (b) MSB, wherein both (a) and (b) contain the previously described protease inhibitors. The resultant suspension was frozen and thawed three times.
One hundred (100) μl of T. ni mitochondria (9.83 μg/ml) was thawed slowly on ice and then centrifuged at 4° C. for 15 minutes to pellet mitochondria. […]
The extracts were evaluated by Western analysis. […]

T1 sequence (P30405 30-207): as above
T2 sequence (P30405 30-207): as above
T3 sequence (P30405 30-207): as above

Substance | rotamase activity (CypD rotamase activity) | GST-CypD in SMP pellet fractions [1] | binding of GST-CypD to ANT/BR PLS [2] | amount of CypD-GST retained on beads ([3]; His-tagged huANT3 present (lanes 2', 3') versus absent (lane 1')) | binding of CypD-GST to His-tagged ANT3 on a solid support ([3]; summary statement)
Ek-CypD: CypD liberated from the polyHis fusion tag following enterokinase cleavage | rotamase activity was also demonstrated |  |  |  | 
GST-CypD: recombinant glutathione S-transferase-human cyclophilin D fusion protein expressed from pMK12-GST-huCypD | readily apparent rotamase activity | readily detectable | readily apparent | visibly increased by roughly an order of magnitude | specifically binds
His-CypD: recombinant polyHis-tagged human CypD fusion protein, purified on nickel columns or by FPLC | rotamase activity was also demonstrated |  |  |  | 
